Results published in publication PMC4288197, “Novel RNA chaperone domain of RNA-binding protein La is regulated by AKT phosphorylation”.

Key:
La WT (LARP3) [1] = target: T1, La WT (LARP3) (Homo sapiens, UniProt P05455 1-408); assay: competition; vs labeled D1-AUG; 20 mM Tris/HCl pH 8.0, 150 mM NaCl, 1.5 mM MgCl2, 0.5 mM EDTA, 0.5% NP-40 (FP: IGEPAL CA-630, 100 ug/ml bovine gamma globulin), 10 nM RNA, room temperature; details: protein: recombinant; tags: His
T1 sequence: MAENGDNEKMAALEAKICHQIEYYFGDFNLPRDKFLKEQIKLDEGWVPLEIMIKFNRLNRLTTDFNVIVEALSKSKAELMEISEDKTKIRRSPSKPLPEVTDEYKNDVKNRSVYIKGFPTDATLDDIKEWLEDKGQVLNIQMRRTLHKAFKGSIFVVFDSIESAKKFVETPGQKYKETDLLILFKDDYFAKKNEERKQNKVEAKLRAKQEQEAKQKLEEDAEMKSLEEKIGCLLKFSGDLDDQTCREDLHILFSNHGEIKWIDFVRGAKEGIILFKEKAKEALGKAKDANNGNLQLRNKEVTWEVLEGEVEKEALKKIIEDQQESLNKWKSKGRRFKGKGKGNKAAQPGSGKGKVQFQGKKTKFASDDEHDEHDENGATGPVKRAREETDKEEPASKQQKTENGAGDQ

LaΔ1 (LAM deleted) = target: T2, LaΔ1 (LAM deleted) (Homo sapiens, UniProt P05455 1-408, del11-99); assay: EMSA; affinity similar to WT; two complexes; 20 mM Tris/HCl pH 8.0, 150 mM NaCl, 1.5 mM MgCl2, 0.5 mM EDTA, 0.5% NP-40 (FP: IGEPAL CA-630, 100 ug/ml bovine gamma globulin), 10 nM RNA, room temperature; details: protein: recombinant; tags: His; label: 32P (EMSA) or 5'-FAM (FP); hairpin (predicted)
T2 sequence: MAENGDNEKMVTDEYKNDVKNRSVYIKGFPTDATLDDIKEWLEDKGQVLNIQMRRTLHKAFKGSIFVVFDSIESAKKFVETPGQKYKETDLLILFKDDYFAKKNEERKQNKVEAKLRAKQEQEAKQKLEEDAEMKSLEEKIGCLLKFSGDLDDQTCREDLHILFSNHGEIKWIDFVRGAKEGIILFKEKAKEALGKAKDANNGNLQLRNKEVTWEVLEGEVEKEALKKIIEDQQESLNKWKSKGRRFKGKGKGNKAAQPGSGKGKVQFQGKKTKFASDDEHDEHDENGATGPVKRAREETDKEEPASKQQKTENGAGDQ

La WT (LARP3) [2] = target: T1, La WT (LARP3); assay: fluorescence polarization; 5'-FAM RNA; 20 mM Tris/HCl pH 8.0, 150 mM NaCl, 1.5 mM MgCl2, 0.5 mM EDTA, 0.5% NP-40 (FP: IGEPAL CA-630, 100 ug/ml bovine gamma globulin), 10 nM RNA, room temperature; details: protein: recombinant; tags: His; label: 32P (EMSA) or 5'-FAM (FP); hairpin (predicted)
LaΔRCD = target: T3, LaΔRCD (Homo sapiens, UniProt P05455 1-408, R334G;R335G;F336V;K337G;G338G;K339G;F357V;K360G;K361G;T362T;K363G;F364V); assay: EMSA; similar to WT; two complexes at high La; 20 mM Tris/HCl pH 8.0, 150 mM NaCl, 1.5 mM MgCl2, 0.5 mM EDTA, 0.5% NP-40 (FP: IGEPAL CA-630, 100 ug/ml bovine gamma globulin), 10 nM RNA, room temperature; details: protein: recombinant; tags: His; label: 32P (EMSA) or 5'-FAM (FP); hairpin (predicted)
T3 sequence: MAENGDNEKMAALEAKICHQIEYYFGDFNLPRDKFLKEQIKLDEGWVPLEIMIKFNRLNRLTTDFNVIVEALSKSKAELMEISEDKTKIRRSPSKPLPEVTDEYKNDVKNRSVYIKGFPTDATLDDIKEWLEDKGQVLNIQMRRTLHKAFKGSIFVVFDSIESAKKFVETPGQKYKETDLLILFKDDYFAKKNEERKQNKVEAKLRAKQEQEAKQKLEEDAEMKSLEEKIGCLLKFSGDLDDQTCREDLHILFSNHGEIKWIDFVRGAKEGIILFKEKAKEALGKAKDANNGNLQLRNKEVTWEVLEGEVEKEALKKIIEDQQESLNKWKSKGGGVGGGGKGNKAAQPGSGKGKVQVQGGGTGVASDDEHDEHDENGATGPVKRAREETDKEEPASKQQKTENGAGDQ

La WT (LARP3) [3] = target: T1, La WT (LARP3); assay: EMSA; 20 mM Tris/HCl pH 8.0, 150 mM NaCl, 1.5 mM MgCl2, 0.5 mM EDTA, 0.5% NP-40 (FP: IGEPAL CA-630, 100 ug/ml bovine gamma globulin), 10 nM RNA, room temperature; details: protein: recombinant; tags: His; label: 32P (EMSA) or 5'-FAM (FP); hairpin (predicted)
La-Δlinker = target: T4, La-Δlinker (Homo sapiens, UniProt P05455 1-408, del170-230); assay: as above; details: protein: recombinant; tags: His; label: 32P (EMSA) or 5'-FAM (FP); hairpin (predicted)
T4 sequence: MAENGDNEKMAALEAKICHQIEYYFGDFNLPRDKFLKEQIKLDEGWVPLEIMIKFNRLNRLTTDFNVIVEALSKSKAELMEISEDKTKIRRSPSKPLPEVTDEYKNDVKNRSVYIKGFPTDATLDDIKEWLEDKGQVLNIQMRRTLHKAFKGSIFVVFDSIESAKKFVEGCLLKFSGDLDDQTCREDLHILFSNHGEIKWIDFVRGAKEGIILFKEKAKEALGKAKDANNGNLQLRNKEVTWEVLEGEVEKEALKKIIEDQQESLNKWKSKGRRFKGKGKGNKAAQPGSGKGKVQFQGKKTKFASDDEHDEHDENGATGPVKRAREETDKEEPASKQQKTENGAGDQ

B1: D1-mu3 (ssRNA)
RNA: CAGGAAGAGCCCCACAGAUGCACCACCAGCUCCUG
binding result (La WT (LARP3) [1]): no binding

B2: D1-mu2 (ssRNA)
RNA: CAGGAAGAGCCCCAGCCAGGGAACACCAGCUCCUG
binding result (La WT (LARP3) [1]): binds

B3: D1-AUG (structured_RNA)
RNA: GCUGCCCAGGAAGAGCCCCAGCCAUGGAACACCAGCUCCUGUGCUGC
binding result (LaΔ1 (LAM deleted)): binds
Kd (La WT (LARP3) [2]): 76 nM
binding result (LaΔRCD): binds
Kd (La WT (LARP3) [3]): 80.3 nM
binding result (La-Δlinker): no binding
